The record followed here is patent US7166426.

Assay [1] has as its target NS3/4a conformational epitope with Thr to Pro and Ser to Ile substitutions (hepatitis C virus, HCV-1 (HCV1a)) (UniProt P26664). As to the kind of experiment: ELISA, antigen coated on microtiter plate, negative control. (An ELISA detects its analyte on a solid surface through an enzyme-linked reagent.)
For assay [2], the target named is denatured NS3/4a (hepatitis C virus, HCV-1 (HCV1a)) (UniProt P26664). Described as above.
Assay [3] addresses c200 antigen. The description is as above.
For assay [4], the target named is NS3/4a conformational epitope with Thr to Pro and Ser to Ile substitutions (hepatitis C virus, HCV-1 (HCV1a)) (UniProt P26664). As to the kind of experiment: ELISA, antigen coated on microtiter plate, average of the negative controls.
For assay [5], the target named is denatured NS3/4a (hepatitis C virus, HCV-1 (HCV1a)) (UniProt P26664). Described as above.
The target of assay [6] is c200 antigen. Described as above.

Several values for one entry are separate records, joined by “and”; a condition that tells them apart may be missing. Equal entries are not always repeated.

As to HCV 3.0 Controls, negative control, the OD in assay [1] is 0.023 OD and 0.027 OD and 0.021 OD; in assay [2], 0.024 OD and 0.017 OD; in assay [3], 0.008 OD and 0.007 OD and 0.005 OD. For the same substance, the OD (average of Neg. Cont.) worked out at 0.024 OD in assay [4], 0.022 OD in assay [5] and 0.007 OD in assay [6].
